The record followed here is patent publication US10179909B2, “Non-natural amino acid tRNA synthetases for pyridyl tetrazine” (priority 2013, dated 2019).

Numbering of substitutions follows the chain as printed. Names and notes keep the numbering of the source.

This experiment has as its system GFP (K49TAG) amber (TAG) codon / orthogonal CUA-encoding suppressor tRNA. As to the kind of experiment: CFPS based GFP K49TAG amber suppression assay. To be noted: for full-length GFP expression by suppression of the TAG codon: clone titrated into CFPS reactions in the absence or presence of 4 μM non-natural amino acid; for amber suppression efficiency (levels of GFP detected): in the presence of the pyridyl-amino tetrazine compound (Formula I for 2A2, Formula II for 2A9), cell-free protein synthesis, 30° C., 12 h; for amber suppression (levels of GFP detected) without non-natural amino acid: reactions lacking the non-natural amino acid and containing the common naturally occurring amino acids. In kind it is biochemical, E. coli. How it is done:
The RS variants described herein were used to incorporate the compound of Formula I or the compound Formula II into the reporter protein Superfolder GFP. GFP containing a TAG stop codon at position 49 (GFP (K49TAG)) was expressed in a cell-free protein synthesis reaction as described in Zawada et al., 2011, Biotechnol. Bioeng., 108(7)1570-1578 with the following modifications. The cell free extracts were prepared from an OmpT sensitive RF-1 attenuated strain that was also engineered to overexpress E. coli DsbC, and a similar RF-1 attenuated E. coli strain that was engineered to produce an orthogonal CUA-encoding tRNA for insertion of a non-natural amino acid at an amber stop codon. The cell free extracts were blended (at a ratio of 85:15), and then added to a premix containing all other components of a cell-free protein synthesis system except for DNA encoding GFP (K49TAG). The final concentration in the cell-free protein synthesis reaction was 30% cell extract, with or without 2 mM non-natural amino acid (either Formula I or Formula II), 4 μM, 2 μM, 1 μM or no nnAA-specific RS variant (e.g., variant clone 1A7, 2A2, 1B7, 1B8, 2A1, 2B7, 2B5, 2A5, 2B4, 2B3, or 2A9), 8 mM magnesium glutamate, 10 mM ammonium glutamate, 130 mM potassium glutamate, 35 mM sodium pyruvate, 1.2 mM AMP, 0.86 mM each of GMP, UMP, and CMP, 2 mM amino acids (except 0.5 mM for tyrosine and phenylalanine), 4 mM sodium oxalate, 1 mM putrescine, 1.5 mM spermidine, 15 mM potassium phosphate, 100 nM T7 RNAP, 10 μg/mL GFP (K49TAG) expression template plasmid. The cell-free synthesis reactions were initiated by the addition of the plasmid DNA encoding GFP (K49TAG). The reactions were incubated at 30° C. for 12 h on a shaker at 650 rpm. After 12 hours of expression at the end point GFP fluorescence signal was measured at excitation at 476 nm, emission at 510 nm on a SpectraMax M5 fluorescence plate reader.
Similarly, clone 2A9, specific for Formula II, was titrated into the GFP-based amber supression CFPS reactions in the absence or presence of 4 μM Formula II.

On to `Cc1nnc(NCc2ccc(C[C@H](N)C(=O)O)nc2)nn1` [Formula I, (S)-2-amino-3-(5-((6-methyl-1,2,4,5-tetrazin-3-ylamino)methyl)pyridin-2-yl)propanoic acid], for which the “GFP levels relative to the positive GFP control reaction” value (reaction containing the non-natural amino acid and its specific RS clone (2A2 for Formula I, 2A9 for Formula II), control GFP has no premature stop codon) was “comparable”.

B1: Clone 2A2: M. jannaschii TyrRS variant for Formula I: Y32L, L65V, H70A, F108W, Q109S, D158V, I159A, L162V (protein, listed as Methanococcus jannaschii)
chain: MDEFEMIKRNTSEIISEEELREVLKKDEKSALIGFEPSGKIHLGHYLQIKKMIDLQNAGFDIIIVLADLAAYLNQKGELDEIRKIGDYNKKVFEAMGLKAKYVYGSEWSLDKDYTLNVYRLALKTTLKRARRSMELIAREDENPKVAEVIYPIMQVNVAHYVGVDVAVGGMEQRKIHMLARELLPKKVVCIHNPVLTGLDGEGKMSSSKGNFIAVDDSPEEIRAKIKKAYCPAGVVEGNPIMEIAKYFLEYPLTIKRPEKFGGDLTVNSYEELESLFKNKELHPMDLKNAVAEELIKILEPIRKRL
modifications: wild-type (WT) tyrosyl tRNA synthetase (TyrRS), reference sequence
notes: M. jannaschii TyrRS variant for Formula I: Y32L, L65V, H70A, F108W, Q109S, D158V, I159A, L162V
With B1, the “full-length GFP expression by suppression of the TAG codon” value is on record as “expressed only in the presence of the compound of Formula I”, the “amber suppression efficiency (levels of GFP detected)” value is reported as “high amber suppression efficiencies” and the “amber suppression (levels of GFP detected) without non-natural amino acid” value was “substantially no amber supression”.

B2: Clone 2A9: M. jannaschii TyrRS variant for Formula II: Y32G, L65V, H70A, Q109S, D158G, L162S (protein, listed as Methanococcus jannaschii)
chain: B1 chain with L32G, W108F, V158G, A159I, V162S
modifications: wild-type (WT) tyrosyl tRNA synthetase (TyrRS), reference sequence
notes: M. jannaschii TyrRS variant for Formula II: Y32G, L65V, H70A, Q109S, D158G, L162S
As to B2, the “full-length GFP expression by suppression of the TAG codon” value is listed as “expressed only in the presence of the compound of Formula II”, the “amber suppression efficiency (levels of GFP detected)” value is “high amber suppression efficiencies” and the “amber suppression (levels of GFP detected) without non-natural amino acid” value was “substantially no amber supression”.
